According to PMC12169662, “De Novo-Designed APC/C Inhibitors Provide a Rationale for Targeting RING-Type E3 Ubiquitin Ligases” (Journal of Medicinal Chemistry, 2025):
Bridge positions count the residues as written; N and C are the ends. Square brackets hold non-standard residues; d marks the D form. Ends that are not written are not given here. R8 = C=CCCCCCC[C@@](C)(N)C(=O)O; S5 = C=CCCC[C@](C)(N)C(=O)O

Experiments:
[1] = molecular target: T1, recombinant APC/C (anaphase promoting complex/cyclosome) (UniProt Q9NYG5 1-84; Q9UJX6 1-822; Q9H1A4 1-1944; P30260 1-824); test: cell-based or functional assay
T1 sequence (P30260 whole entry, looked up, chain 1 of 4): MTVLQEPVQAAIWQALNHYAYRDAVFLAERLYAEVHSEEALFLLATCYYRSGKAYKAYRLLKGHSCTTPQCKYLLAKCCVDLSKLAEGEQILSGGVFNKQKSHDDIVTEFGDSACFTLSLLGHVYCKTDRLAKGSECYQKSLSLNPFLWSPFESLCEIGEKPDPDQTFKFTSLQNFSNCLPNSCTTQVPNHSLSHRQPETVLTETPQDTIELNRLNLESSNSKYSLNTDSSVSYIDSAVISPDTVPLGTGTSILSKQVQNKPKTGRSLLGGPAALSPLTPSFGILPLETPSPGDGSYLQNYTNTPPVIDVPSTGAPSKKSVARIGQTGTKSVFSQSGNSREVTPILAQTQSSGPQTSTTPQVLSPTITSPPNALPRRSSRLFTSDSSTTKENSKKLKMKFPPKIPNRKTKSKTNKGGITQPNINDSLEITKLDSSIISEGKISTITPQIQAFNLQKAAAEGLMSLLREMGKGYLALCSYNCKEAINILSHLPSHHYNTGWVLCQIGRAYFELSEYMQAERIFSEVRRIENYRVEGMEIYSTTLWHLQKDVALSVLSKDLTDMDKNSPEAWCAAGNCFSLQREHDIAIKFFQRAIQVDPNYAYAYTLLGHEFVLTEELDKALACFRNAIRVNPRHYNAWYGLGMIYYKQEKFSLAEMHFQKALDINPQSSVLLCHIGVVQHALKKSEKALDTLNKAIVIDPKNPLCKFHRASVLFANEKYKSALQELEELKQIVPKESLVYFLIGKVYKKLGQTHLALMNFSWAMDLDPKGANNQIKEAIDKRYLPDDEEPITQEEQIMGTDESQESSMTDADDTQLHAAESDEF
T1 sequence (Q9H1A4 whole entry, looked up, chain 2 of 4): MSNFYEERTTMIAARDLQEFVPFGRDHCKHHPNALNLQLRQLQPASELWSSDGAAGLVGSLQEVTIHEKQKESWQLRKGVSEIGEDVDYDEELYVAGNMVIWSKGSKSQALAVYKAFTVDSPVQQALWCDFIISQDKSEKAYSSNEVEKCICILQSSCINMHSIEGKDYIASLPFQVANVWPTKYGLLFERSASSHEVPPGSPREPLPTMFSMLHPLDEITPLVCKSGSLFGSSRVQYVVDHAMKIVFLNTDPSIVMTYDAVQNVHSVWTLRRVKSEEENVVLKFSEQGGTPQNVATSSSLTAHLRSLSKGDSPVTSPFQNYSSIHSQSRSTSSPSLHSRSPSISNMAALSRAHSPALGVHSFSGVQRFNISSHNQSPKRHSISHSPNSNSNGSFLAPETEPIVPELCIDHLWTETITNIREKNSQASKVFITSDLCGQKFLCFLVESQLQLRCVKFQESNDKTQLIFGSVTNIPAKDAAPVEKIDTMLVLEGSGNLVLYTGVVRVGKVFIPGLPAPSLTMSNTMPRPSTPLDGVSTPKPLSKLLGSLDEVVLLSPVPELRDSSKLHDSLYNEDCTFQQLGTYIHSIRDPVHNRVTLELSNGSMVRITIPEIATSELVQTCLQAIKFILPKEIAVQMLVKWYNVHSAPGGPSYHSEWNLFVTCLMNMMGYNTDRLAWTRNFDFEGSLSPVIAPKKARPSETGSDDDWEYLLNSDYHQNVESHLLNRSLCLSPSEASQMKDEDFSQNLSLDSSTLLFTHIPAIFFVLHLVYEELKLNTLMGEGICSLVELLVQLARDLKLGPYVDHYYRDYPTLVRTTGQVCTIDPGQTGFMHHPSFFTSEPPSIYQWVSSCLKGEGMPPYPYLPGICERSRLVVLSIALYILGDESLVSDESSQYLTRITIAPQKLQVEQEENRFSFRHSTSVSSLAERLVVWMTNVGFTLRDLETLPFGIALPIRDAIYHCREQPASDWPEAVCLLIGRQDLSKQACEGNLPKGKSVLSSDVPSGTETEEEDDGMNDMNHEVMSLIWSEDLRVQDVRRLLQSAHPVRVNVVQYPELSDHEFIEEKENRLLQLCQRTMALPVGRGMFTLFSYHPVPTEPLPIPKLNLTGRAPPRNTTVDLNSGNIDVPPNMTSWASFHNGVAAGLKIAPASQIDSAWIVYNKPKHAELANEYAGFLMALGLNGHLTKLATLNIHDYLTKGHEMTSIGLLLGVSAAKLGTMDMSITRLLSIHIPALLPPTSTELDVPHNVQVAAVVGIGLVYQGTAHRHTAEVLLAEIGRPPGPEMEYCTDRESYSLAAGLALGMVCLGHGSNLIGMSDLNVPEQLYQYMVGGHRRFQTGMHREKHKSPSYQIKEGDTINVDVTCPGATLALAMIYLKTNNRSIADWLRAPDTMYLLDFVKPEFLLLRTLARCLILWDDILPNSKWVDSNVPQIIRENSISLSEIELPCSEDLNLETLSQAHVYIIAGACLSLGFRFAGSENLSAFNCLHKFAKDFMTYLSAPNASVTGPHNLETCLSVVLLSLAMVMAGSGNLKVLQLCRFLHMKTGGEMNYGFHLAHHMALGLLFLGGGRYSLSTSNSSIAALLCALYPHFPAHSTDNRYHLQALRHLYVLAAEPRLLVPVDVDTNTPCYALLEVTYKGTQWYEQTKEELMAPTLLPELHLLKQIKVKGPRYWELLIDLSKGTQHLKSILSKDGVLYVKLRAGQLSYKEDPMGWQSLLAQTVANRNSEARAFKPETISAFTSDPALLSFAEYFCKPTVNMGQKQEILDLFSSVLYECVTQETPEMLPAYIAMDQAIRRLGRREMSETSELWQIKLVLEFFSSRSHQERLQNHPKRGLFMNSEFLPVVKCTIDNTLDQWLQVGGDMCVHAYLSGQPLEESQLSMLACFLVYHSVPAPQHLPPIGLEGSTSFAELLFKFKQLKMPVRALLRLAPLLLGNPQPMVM
T1 sequence (Q9UJX6 whole entry, looked up, chain 3 of 4): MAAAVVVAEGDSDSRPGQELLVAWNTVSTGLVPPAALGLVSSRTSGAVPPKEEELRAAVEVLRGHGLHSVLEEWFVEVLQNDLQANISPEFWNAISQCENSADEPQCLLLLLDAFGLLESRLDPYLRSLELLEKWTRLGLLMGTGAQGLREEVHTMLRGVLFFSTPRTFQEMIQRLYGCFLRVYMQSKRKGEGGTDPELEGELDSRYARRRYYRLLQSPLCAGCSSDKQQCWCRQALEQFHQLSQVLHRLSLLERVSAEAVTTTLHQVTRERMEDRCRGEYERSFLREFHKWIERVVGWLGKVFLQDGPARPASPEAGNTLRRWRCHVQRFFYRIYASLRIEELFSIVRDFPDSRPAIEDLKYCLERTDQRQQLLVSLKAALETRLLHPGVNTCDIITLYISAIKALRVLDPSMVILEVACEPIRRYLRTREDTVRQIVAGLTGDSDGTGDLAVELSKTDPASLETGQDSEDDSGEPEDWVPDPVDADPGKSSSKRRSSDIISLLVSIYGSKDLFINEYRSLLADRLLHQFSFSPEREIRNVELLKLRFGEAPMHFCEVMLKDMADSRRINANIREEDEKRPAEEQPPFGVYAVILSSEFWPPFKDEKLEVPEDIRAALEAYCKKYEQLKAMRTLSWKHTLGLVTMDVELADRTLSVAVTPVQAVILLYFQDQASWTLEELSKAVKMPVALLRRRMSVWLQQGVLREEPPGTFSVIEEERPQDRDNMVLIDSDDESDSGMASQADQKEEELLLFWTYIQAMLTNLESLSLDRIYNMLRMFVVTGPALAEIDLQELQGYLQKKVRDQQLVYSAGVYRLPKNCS
T1 sequence (Q9NYG5 whole entry, looked up, chain 4 of 4): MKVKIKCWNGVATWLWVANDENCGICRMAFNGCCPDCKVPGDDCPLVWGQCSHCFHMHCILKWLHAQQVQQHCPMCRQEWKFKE

[2] = molecular target: T1, recombinant APC/C (anaphase promoting …); test: enzyme kinetics (in vitro APC/C ubiquitination assay); 20 nM recombinant APC/C, 340 nM CDC20, UBA1, UBE2C K119R, ubiquitin; securin titrated from 50 nM to 5 μM with and without H6; initial velocity; 30 °C, 30 mM HEPES pH 7.4, 175 mM NaCl, 8 mM MgCl2; model for noncompetitive inhibition; conditions: both partners purified

IC50 of in vitro APC/C ubiquitination of the substrate, H6 titrated from 0.01 to 100 μM; blocks E2 recruitment to the RING domain of APC/C [1]: 1.96 µM | Ki [2]: 5.03 ± 0.79 µM
Binder: EWW[R8]IKEIQR[S5]RRA (designed binder, staple 4-11) [H6]
